Read-outs that look alike come from different tables or passages of the source.
Biological target: T1, murine extracellular domain of the Flt3 receptor fused to the transmembrane and intracellular domains of the human Fms (UniProt P07333+Q00342, A795S/A899S/C564L/C654D/C793H/C831G/D601N/D652H/D673E/D898N/DEL545-556/DEL576-597/DEL711-780/E609N/E612Q/E649S/E789R/E803A/E806A/E865D/F571P/F692T/F788L/F807S/G637D/G866C/H565Y/H671Q/H824N/I560L/I563L/I633L/I640L/I867V/I870V/INS558VACMSIMALLLL/INS573QVRWKII/INS599GNSYTFIDPTQLP/INS709AMLGPSLSPGQDPEGGVDYKNIHLEKKYVRRDSGFSSQGVDTYVEMRPVSTSSNDSFSEQDLD/K569Q/K650T/K800Q/K826H/K871Q/L602E/L684H/L690V/L783G/L815V/L840M/L863I/M626V/M665I/N627E/N784R/N900K/P896L/Q570K/Q641K/R572K/R624K/R708A/R848K/S619A/S634G/S639V/S653A/S685G/S706R/S809N/S841N/S844N/T636E/T667S/T787E/V561L/V616T/V638A/V785P/V811I/V822L/V828A/V846I/V889L/Y631F/Y689L/Y703F/Y796S)
T1 construct: consisting of the murine extracellular domain of the Flt3 receptor fused to the transmembrane and intracellular domains of the human Fms; expressed in transfected cells; host or cells: NIH 3T3 (mFlt3/Fms 3T3 cell line, provided by Dr. Ihor Lemischka)
T1 sequence (Q00342+P07333 with tags, fused parts or gaps Q00342:DEL545-556/Q00342:INS558VACMSIMALLLL/Q00342:I560L/Q00342:V561L/Q00342:I563L/Q00342:C564L/Q00342:H565Y/Q00342:K569Q/Q00342:Q570K/Q00342:F571P/Q00342:R572K/Q00342:INS573QVRWKII/Q00342:DEL576-597/Q00342:INS599GNSYTFIDPTQLP/Q00342:D601N/Q00342:L602E/Q00342:E609N/Q00342:E612Q/Q00342:V616T/Q00342:S619A/Q00342:R624K/Q00342:M626V/Q00342:N627E/Q00342:Y631F/Q00342:I633L/Q00342:S634G/Q00342:T636E/Q00342:G637D/Q00342:V638A/Q00342:S639V/Q00342:I640L/Q00342:Q641K/Q00342:E649S/Q00342:K650T/Q00342:D652H/Q00342:S653A/Q00342:C654D/Q00342:M665I/Q00342:T667S/Q00342:H671Q/Q00342:D673E/Q00342:L684H/Q00342:S685G/Q00342:Y689L/Q00342:L690V/Q00342:F692T/Q00342:Y703F/Q00342:S706R/Q00342:R708A/Q00342:INS709AMLGPSLSPGQDPEGGVDYKNIHLEKKYVRRDSGFSSQGVDTYVEMRPVSTSSNDSFSEQDLD/Q00342:DEL711-780/Q00342:L783G/Q00342:N784R/Q00342:V785P/Q00342:T787E/Q00342:F788L/Q00342:E789R/Q00342:C793H/Q00342:A795S/Q00342:Y796S/Q00342:K800Q/Q00342:E803A/Q00342:E806A/Q00342:F807S/Q00342:S809N/Q00342:V811I/Q00342:L815V/Q00342:V822L/Q00342:H824N/Q00342:K826H/Q00342:V828A/Q00342:C831G/Q00342:L840M/Q00342:S841N/Q00342:S844N/Q00342:V846I/Q00342:R848K/Q00342:L863I/Q00342:E865D/Q00342:G866C/Q00342:I867V/Q00342:I870V/Q00342:K871Q/Q00342:V889L/Q00342:P896L/Q00342:D898N/Q00342:A899S/Q00342:N900K): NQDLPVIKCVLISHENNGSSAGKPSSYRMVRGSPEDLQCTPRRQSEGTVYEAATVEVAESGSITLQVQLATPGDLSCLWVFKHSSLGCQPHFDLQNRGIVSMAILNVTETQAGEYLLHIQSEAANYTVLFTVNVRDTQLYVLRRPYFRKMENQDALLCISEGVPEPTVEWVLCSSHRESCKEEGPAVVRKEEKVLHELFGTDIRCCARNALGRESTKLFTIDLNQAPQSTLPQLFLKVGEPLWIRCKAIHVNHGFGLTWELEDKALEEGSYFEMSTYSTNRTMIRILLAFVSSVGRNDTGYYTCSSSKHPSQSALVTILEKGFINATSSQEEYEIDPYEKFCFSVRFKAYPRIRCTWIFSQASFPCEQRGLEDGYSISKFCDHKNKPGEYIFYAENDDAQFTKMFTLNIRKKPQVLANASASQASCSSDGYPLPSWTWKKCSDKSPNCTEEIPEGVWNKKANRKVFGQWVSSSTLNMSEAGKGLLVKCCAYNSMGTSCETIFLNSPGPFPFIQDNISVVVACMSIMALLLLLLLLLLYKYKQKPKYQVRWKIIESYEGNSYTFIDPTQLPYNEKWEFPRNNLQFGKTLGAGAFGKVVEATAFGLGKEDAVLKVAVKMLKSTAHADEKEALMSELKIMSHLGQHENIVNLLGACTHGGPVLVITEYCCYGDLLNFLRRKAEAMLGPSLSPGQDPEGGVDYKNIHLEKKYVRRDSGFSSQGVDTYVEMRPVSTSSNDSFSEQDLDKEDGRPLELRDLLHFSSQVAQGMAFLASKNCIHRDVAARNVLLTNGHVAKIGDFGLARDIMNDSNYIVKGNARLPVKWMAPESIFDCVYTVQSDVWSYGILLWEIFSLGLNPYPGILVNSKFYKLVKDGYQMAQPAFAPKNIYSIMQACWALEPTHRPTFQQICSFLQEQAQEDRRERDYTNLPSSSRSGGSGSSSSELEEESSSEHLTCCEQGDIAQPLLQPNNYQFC
Assay: mFlt3/Fms 3T3 biological screening assay (XTT)
Assay type: cell-based
Description: A biological screening assay to search for novel stimulators of the Flt3 receptor was developed using NIH 3T3 cells transfected with expression vectors containing cDNA of murine and human Flt3 and the related Fms receptor. The mFlt3/Fms 3T3 cell line is a 3T3 cell line transfected with nucleic acid encoding a fusion protein consisting of the murine extracellular domain of the Flt3 receptor fused to the transmembrane and intracellular domains of the human Fms (provided by Dr. Ihor Lemischka, Princeton University, Princeton, N.J.). The Stk 3T3 cell line is a 3T3 cell line transfected with the full-length human Flt3 receptor (provided by Dr. Donald Small, Johns Hopkins University, Baltimore, Md.). The human FMS 3T3 cell line is a 3T3 cell line transfected with the full-length human Fms receptor (provided by Dr. Charles Sherr, Saint Jude Children's Research Hospital, Memphis, Tenn. Parent 3T3 cells were purchased from American Type Culture Collection (“ATCC”; Manassas, Va.). Receptor-transfected cells contained Neo resistance genes and were maintained in medium containing 750 µg/ml of G418 (Life Technologies, Rockville, Md.).
To create factor-dependence for receptor-transfected 3T3 cells, growth conditions were compromised to permit only ligands to rescue cells from death. To do this, 3T3 cell lines were assayed in 96 well plates (Becton Dickinson Labware, Lincoln Park, N.J.) containing 3,000 cells in 100 μL of serum-free medium consisting of 10% AIMV (Life Technologies) and 90% DMEM. In each experiment, samples were serially diluted two-fold across rows starting at a 1:10 dilution. Viable cells were quantitated after 3-5 days by XTT (2,3-bis[Methoxy-4-nitro-5sulfophenyl]-2H-tetrazolium-5 carboxanilide inner salt) (Sigma, St. Louis, Mo.) (Roehm et al., supra). Relative activity (units/ml) and specific activity (units/mg) are defined as the reciprocal dilution at which half-maximal stimulation of cells was detected.

B1: Pv-FRIL: FRIL family mannose-binding lectin from Phaseolus vulgaris (red kidney bean), SEQ ID NO: 6 (protein)
chain: AQSLSFNFTKFDLDQKDLIFQGDATSTNNVLQLTKLDSGGNPVGASVGRVLFSAPFHLWENSMAVSSFETNLTIQISTPHPYYAADGFAFFLAPHDTVIPPNSWGKFLGLYSNVFRNSPTSENQSFGDVNTDSRVVAVEFDTFPNANIDPNYRHIGIDVNSIKSKETARWEWQNGKTATARISYNSASKKSTVTTFYPGMEVVALSHDVDLHAELPEWVRVGLSASTGEEKQKNTIISWSFTSSLKNNEVKEPKEDMYIANVVRSYTWINDVLSYISNKMYDALNNNHKYVRCSTCMLFMKKK
  response of mFlt3/Fms 3T3 cells: responded in a dose dependent manner
Presence of rhIL1
  response of mFlt3/Fms 3T3 cells: respond to FRIL in the presence of rhIL1

— patent publication US6991794B1, “Progenitor cell preservation factors and methods for and products of their use” (ImClone Systems Incorporated, priority 1997, dated 2006)
